*1 amine or outer side, *2 acyl side, *3 side chain or, on linkers, in order; H or OH if unused. Bridges are numbered along the chain shown (N, C = ends). Where no end group is shown, it is not given here. Side-chain parts run from the residue outwards. [ ]: non-standard residue; d: D form. The star is where a group is joined. C18 diacid = O=C(O)CCCCCCCCCCCCCCCCC(=O)*; γGlu = O=C(O)[C@H](CCC(=O)[*:2])N[*:1]; AEEA = NCCOCCOCC(=O)O; Aib = CC(C)(N)C(=O)O
T1: human GIP receptor (human, UniProt P48546 22-466)
T1 sequence (looked up): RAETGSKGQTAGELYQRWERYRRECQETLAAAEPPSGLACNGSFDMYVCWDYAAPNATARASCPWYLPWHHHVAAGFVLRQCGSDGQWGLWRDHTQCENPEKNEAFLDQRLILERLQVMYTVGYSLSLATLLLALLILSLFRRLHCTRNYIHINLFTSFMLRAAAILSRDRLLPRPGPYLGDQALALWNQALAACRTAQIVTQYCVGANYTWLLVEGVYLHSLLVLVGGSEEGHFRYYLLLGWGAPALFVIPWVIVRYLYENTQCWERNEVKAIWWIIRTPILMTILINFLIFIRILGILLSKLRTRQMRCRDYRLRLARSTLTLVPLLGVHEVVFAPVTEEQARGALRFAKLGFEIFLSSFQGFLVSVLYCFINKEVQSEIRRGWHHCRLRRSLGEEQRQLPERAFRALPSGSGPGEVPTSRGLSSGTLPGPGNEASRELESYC


Key:
Assay in all cases: cell-based or functional assay
human GLP-1 receptor = human GLP-1 receptor (human, UniProt P43220 24-463)
human GCG receptor = human GCG receptor (human, UniProt P47871 26-477)
human GIP receptor = target: T1, human GIP receptor

Sequence of human GCG receptor (P47871 26-477): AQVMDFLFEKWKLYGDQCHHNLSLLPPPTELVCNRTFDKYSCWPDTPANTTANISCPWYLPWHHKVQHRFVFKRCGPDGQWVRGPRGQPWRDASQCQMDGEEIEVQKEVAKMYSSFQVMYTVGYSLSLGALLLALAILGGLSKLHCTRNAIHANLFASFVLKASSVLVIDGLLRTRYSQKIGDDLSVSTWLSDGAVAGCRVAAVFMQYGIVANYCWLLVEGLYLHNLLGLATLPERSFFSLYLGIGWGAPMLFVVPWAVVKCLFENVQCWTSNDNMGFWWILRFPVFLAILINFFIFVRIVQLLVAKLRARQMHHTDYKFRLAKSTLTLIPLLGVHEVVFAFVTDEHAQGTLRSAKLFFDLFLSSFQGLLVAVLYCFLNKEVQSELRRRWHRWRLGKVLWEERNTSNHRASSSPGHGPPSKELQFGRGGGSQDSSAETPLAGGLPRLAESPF

In vitro Activity Compared to Native Peptide (%) vs. GLP-1 (relative titer from cAMP EC50) (human GLP-1 receptor)	In vitro Activity Compared to Native Peptide (%) vs. Glucagon (relative titer from cAMP EC50) (human GCG receptor)	In vitro Activity Compared to Native Peptide (%) vs. GIP (relative titer from cAMP EC50) (human GIP receptor)	Binder
9.68 % of human GLP-1	5.89 % of human GCG	4.89 % of human GIP	Y[Aib]QGTFTSDYSK([AEEA-AEEA-γGlu-C18 diacid])YLDEKRAKEFVQWLLDHHPSSGQPPPS-NH2 (lactam 16-20; N-terminus assumed; SMILES CC(C)C[C@H](NC(=O)[C@H](Cc1ccc(O)cc1)NC(=O)[C@H](CCCCNC(=O)COCCOCCNC(=O)COCCOCCNC(=O)CC[C@H](NC(=O)CCCCCCCCCCCCCCCCC(=O)O)C(=O)O)NC(=O)[C@H](CO)NC(=O)[C@H](Cc1ccc(O)cc1)NC(=O)[C@H](CC(=O)O)NC(=O)[C@H](CO)NC(=O)[C@@H](NC(=O)[C@H](Cc1ccccc1)NC(=O)[C@@H](NC(=O)CNC(=O)[C@H](CCC(N)=O)NC(=O)C(C)(C)NC(=O)[C@@H](N)Cc1ccc(O)cc1)[C@@H](C)O)[C@@H](C)O)C(=O)N[C@@H](CC(=O)O)C(=O)N[C@H]1CCC(=O)NCCCC[C@@H](C(=O)N[C@@H](CCC(=O)O)C(=O)N[C@@H](Cc2ccccc2)C(=O)N[C@H](C(=O)N[C@@H](CCC(N)=O)C(=O)N[C@@H](Cc2c[nH]c3ccccc23)C(=O)N[C@@H](CC(C)C)C(=O)N[C@@H](CC(C)C)C(=O)N[C@@H](CC(=O)O)C(=O)N[C@@H](Cc2c[nH]cn2)C(=O)N[C@@H](Cc2c[nH]cn2)C(=O)N2CCC[C@H]2C(=O)N[C@@H](CO)C(=O)N[C@@H](CO)C(=O)NCC(=O)N[C@@H](CCC(N)=O)C(=O)N2CCC[C@H]2C(=O)N2CCC[C@H]2C(=O)N2CCC[C@H]2C(=O)N[C@@H](CO)C(N)=O)C(C)C)NC(=O)[C@H](C)NC(=O)[C@H](CCCNC(=N)N)NC(=O)[C@H](CCCCN)NC1=O) [triple agonist of SEQ ID NO: 8]
15 % of human GLP-1	0.51 % of human GCG	8.42 % of human GIP	Y[Aib]QGTFTSDYSK([AEEA-AEEA-γGlu-C18 diacid])YLDEKAAKEFVQWLLDHHPSSGQPPPS-NH2 (lactam 16-20; N-terminus assumed; SMILES CC(C)C[C@H](NC(=O)[C@H](Cc1ccc(O)cc1)NC(=O)[C@H](CCCCNC(=O)COCCOCCNC(=O)COCCOCCNC(=O)CC[C@H](NC(=O)CCCCCCCCCCCCCCCCC(=O)O)C(=O)O)NC(=O)[C@H](CO)NC(=O)[C@H](Cc1ccc(O)cc1)NC(=O)[C@H](CC(=O)O)NC(=O)[C@H](CO)NC(=O)[C@@H](NC(=O)[C@H](Cc1ccccc1)NC(=O)[C@@H](NC(=O)CNC(=O)[C@H](CCC(N)=O)NC(=O)C(C)(C)NC(=O)[C@@H](N)Cc1ccc(O)cc1)[C@@H](C)O)[C@@H](C)O)C(=O)N[C@@H](CC(=O)O)C(=O)N[C@H]1CCC(=O)NCCCC[C@@H](C(=O)N[C@@H](CCC(=O)O)C(=O)N[C@@H](Cc2ccccc2)C(=O)N[C@H](C(=O)N[C@@H](CCC(N)=O)C(=O)N[C@@H](Cc2c[nH]c3ccccc23)C(=O)N[C@@H](CC(C)C)C(=O)N[C@@H](CC(C)C)C(=O)N[C@@H](CC(=O)O)C(=O)N[C@@H](Cc2c[nH]cn2)C(=O)N[C@@H](Cc2c[nH]cn2)C(=O)N2CCC[C@H]2C(=O)N[C@@H](CO)C(=O)N[C@@H](CO)C(=O)NCC(=O)N[C@@H](CCC(N)=O)C(=O)N2CCC[C@H]2C(=O)N2CCC[C@H]2C(=O)N2CCC[C@H]2C(=O)N[C@@H](CO)C(N)=O)C(C)C)NC(=O)[C@H](C)NC(=O)[C@H](C)NC(=O)[C@H](CCCCN)NC1=O) [triple agonist of SEQ ID NO: 9]
